Positions count from the first letter of the chain named.
B1: A30228 (VHH)
VHH: QVKLEESGGGLVQAGDSLTLSCAASGRTFDTMGWFRQAPGKEREFVAAVRWSSGNTYYGNTVKGRFTISRDTATNTVYLEMNSLKHEDTAVYYCAARLAGRGAADHWGQGTQVTVSS
notes: Llama sdAb from a phage display library; Tested as sdAb-SASA protein in E. coli expression medium / culture supernatant (FASEBA format), not purified; 1; also called 抗CD3单域抗体; sdAb; not shown: SASA fusion partner of the pFASEBA vector (sdAb-SASA protein)
B2: A30311 (VHH)
VHH: B1 VHH with D16G, T19R, E80Q, A99G
notes: Llama sdAb from a phage display library; Tested as sdAb-SASA protein in E. coli expression medium / culture supernatant (FASEBA format), not purified; 3; also called 抗CD3单域抗体; sdAb; not shown: SASA fusion partner of the pFASEBA vector (sdAb-SASA protein)

What was measured:
[1] = biological target: CD3 on Jurkat cells (UniProt P07766); experiment: flow cytometry, culture supernatant on Jurkat cells (negative control)
[2] = biological target: CD3 on Jurkat cells (UniProt P07766); experiment: flow cytometry, culture supernatant on Jurkat cells
[3] = biological target: T1, CD3-His蛋白(MP-5) (UniProt P07766 23-126); experiment: BLI (Octet RED96), off-rate screening; sdAb-SASA from expression medium captured on BSA-coated biosensor, 100 nM CD3 in solution, 1:1 Langmuir fit, 30°C
T1 construct: Immunogen and panning antigen; the construct is not defined; also called CD3蛋白; not shown: His tag
T1 sequence (P07766 23-126): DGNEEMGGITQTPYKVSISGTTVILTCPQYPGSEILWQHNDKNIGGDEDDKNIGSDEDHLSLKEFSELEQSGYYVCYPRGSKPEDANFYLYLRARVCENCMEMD

Row | Molecule | MFI [1] | MFI [2] | koff [3] [s⁻¹]
1 | NC-sdAb (VHH) | 115 | – | –
2 | B1 | – | 240 | 7.61e-05
3 | B2 | – | 299 | 0.000153

Source: patent CN106117358A (UNIV SUN YAT SEN, dated 2016)
